Results as given in patent US20140363833.

Legend:
[1] = test system: T1, fluorophore-labeled thrombin substrate (fPR-x-S extended with glycine spacers and a C-terminal cysteine) on nanoworms
T1 sequence: GGFPRSGGGC

[2] = test system: T2, D-isomer of the MMP9 substrate PLGVRGK on nanoworms
T2 sequence: PLGVRGK

[3] = test system: T3, fluorescein-labeled thrombin-cleavable substrate PLGLRSW on nanoworms
T3 sequence: PLGLRSW

[4] = test system: T4, D-stereoisomer of the thrombin substrate PLGLRSW on nanoworms
T4 sequence: PLGLRSW

[5] = biological target: T5, fluorophore-labeled thrombin substrate (fPR-x-S extended with glycine spacers and a C-terminal cysteine) on nanoworms (not fully specified)
T5 chain: GGFPRSGGGC

In the case of FIXa (Haematologic Technologies), the “sample fluorescence (fluorogenic NW protease assay)” value (from here on “sample fluorescence”) [1] is reported as “negligible proteolysis was observed from the panel of non-cognate proteases”.

In the case of FXIa (Haematologic Technologies), the “sample fluorescence” value [1] is reported as “negligible proteolysis was observed from the panel of non-cognate proteases”.

FXa (Haematologic Technologies) was tested, and the “sample fluorescence” value [1] was “negligible proteolysis was observed from the panel of non-cognate proteases”.

“activated protein C (Haematologic Technologies)” was tested, and the “sample fluorescence” value [1] was “negligible proteolysis was observed from the panel of non-cognate proteases”.

In the case of recombinant MMP9 (R&D Systems), the “sample fluorescence” value [2] is reported as “no activity when the broad-spectrum MMP inhibitor Marimastat or D-isomer substrates were used”.

For “recombinant thrombin (Haematologic Technologies)”, the “sample fluorescence” value [3] was “observed a rapid increase in sample fluorescence as cleaved peptide fragments released into solution fluoresced freely” and the “sample fluorescence” value [4] was “No increase in fluorescence was observed in the presence of Argatroban, a direct thrombin inhibitor, or when the substrate was synthesized with protease-resistant D-stereoisomers”.

B1: FVIIa (Haematologic Technologies) (protein)
chain: ANAFLEELRPGSLERECKEEQCSFEEAREIFKDAERTKLFWISYSDGDQCASSPCQNGGSCKDQLQSYICFCLPAFEGRNCETHKDDQLICVNENGGCEQYCSDHTGTKRSCRCHEGYSLLADGVSCTPTVEYPCGKIPILEKRNASKPQGRIVGGKVCPKGECPWQVLLLVNGAQLCGGTLINTIWVVSAAHCFDKIKNWRNLIAVLGEHDLSEHDGDEQSRRVAQVIIPSTYVPGTTNHDIALLRLHQPVVLTDHVVPLCLPERTFSERTLAFVRFSLVSGWGQLLDRGATALELMVLNVPRLMTQDCLQQSRKVGDSPNITEYMFCAGYSDGSKDSCKGDSGGPHATHYRGTWYLTGIVSWGQGCATVGHFGVYTRVSQYIEWLQKLMRSEPRPGVLLRAPFP
With B1 the “sample fluorescence” value [5] was “negligible proteolysis was observed from the panel of non-cognate proteases”.
